The results in this text go back to patent publication US20180245061A1, “Modified Heterocyclase” (THE UNIVERSITY COURT OF THE UNIVERSITY OF ABERDEEN, priority 2014, published 2018).

For one data set, the system named is full-length PatE. The experiment in a line: Heterocyclization of full length PatE substrate (core sequence ITVCISVC), MALDI-TOF-MS. It counts as biochemical. The following applies: MALDI-TOF-MS (FIG. 9). From the text:
Reaction Zoomed view with reaction products identified. The mass of the starting material is 6983.8 Da.

Data set [1] deals with the molecule itself. Description: X-ray crystal structures; gel filtration suggested a dimer. For orientation: Size exclusion chromatography separates by hydrodynamic size, large species first.
In another data set the target is T1, PatE' L29R.
T1 construct: Point mutant of PatE'
T1 peptide: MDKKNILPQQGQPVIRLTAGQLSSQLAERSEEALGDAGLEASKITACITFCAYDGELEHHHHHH
Description: ITC, 20 C. (In general: Isothermal titration calorimetry measures the heat released or taken up as one component is titrated into another.)

Data set [2] addresses T2, PatE' L26R.
T2 peptide: T1 peptide with L26R, R29L
The experiment in a line: ITC, 20 C.

The target of a further data set is T3, PatE' E31R.
T3 construct: Point mutant of PatE'
T3 peptide: T1 peptide with R29L, E31R
The experiment in a line: ITC, 20 C.

The target in data set [3] is T4, PatE' E32R.
T4 construct: Point mutant of PatE'
T4 peptide: T1 peptide with R29L, E32R
Description: ITC, 20 C, one-site model with stoichiometry set to 1; LynD in the cell, peptide in the syringe.

Data set [4] deals with T5, PatE' (precursor peptide PatE variant, 64 amino acids, full leader, single core peptide ITACITFC, C-terminal …).
T5 peptide: T1 peptide with R29L
Described as above.

The next data set addresses T6, PatE' C51A.
T6 peptide: T1 peptide with R29L, C51A
Description: X-ray co-crystal structures LynD/ATP/PatE'C51A (2.14 A) and LynD/beta,gamma-imido-ATP/PatE'C51A (3.01 A).

The target in data set [5] is T7, minimal leader LAELSEEAL synthetic peptide.
T7 chain: LAELSEEAL

The target of data set [6] is T8, full-length PatE'4 leader peptide (tryptic fragment of PatE' D2Y, K3E, K4E, R16E).
T8 chain: T1 peptide with D2Y, K3E, K4E, R16E, R29L

Data set [7] has as its target T2, PatE' L26R. Description: ITC, 20 C, one-site model with stoichiometry set to 1; LynD mutant in the cell, peptide in the syringe.
The target in data set [8] is T5, PatE' (precursor peptide PatE variant, …). Described as above.
A further data set deals with PatE′ L26R. Description: Heterocyclization reaction with PatE′ L26R. It counts as biochemical. The following applies: 2 μM enzyme, 5 mM ATP, 5 mM MgCl2, 16 h at 37° C. How it is done:
(§1) For all heterocyclization reactions, […] PatE′ (and variants,) was incubated with 2 μM enzyme in 150 mM NaCl, 10 mM HEPES pH 7.4, 1 mM TCEP, 5 mM ATP and 5 mM MgCl2 for 16 h at 37° C. Samples were analyzed by ESI or MALDI MS (LCT, Micromass or 4800 MALDI TOF/TOF Analyzer, ABSciex). For cis trans activation studies, 100 μM ITACITFCAYDG synthetic test peptide (Peptide Protein Research Ltd) was reacted with 5 μM heterocyclase enzyme in the presence and absence of 5.5 μM LAELSEEAL synthetic peptide, or 5.5 μM full-length PatE′4 leader peptide. The reaction was carried out in 150 mM NaCl, 10 mM HEPES pH 7.4, 1 mM TCEP, 5 mM ATP and 5 mM MgCl2 for 16 h at 37° C. and analyzed as above. Synthetic peptides were purchased from Peptide Protein Research Ltd.

Data set [9] concerns PatE′. Description: Heterocyclization reaction with PatE′, MS analysis. It counts as biochemical. To be noted: 2 μM enzyme, 5 mM ATP, 5 mM MgCl2, 16 h at 37° C.; TABLE 2. As for the experimental part:
as §1

For data set [10], the target named is T4, PatE' E32R. The experiment in a line: ITC, 20 C, one-site model with stoichiometry set to 1; LynD mutant in the cell, peptide in the syringe.
The next data set relates to PatE′ E32R. The experiment in a line: Heterocyclization reaction with PatE′ E32R. It counts as biochemical. The following applies: 2 μM enzyme, 5 mM ATP, 5 mM MgCl2, 16 h at 37° C. How it is done: as §1
The target of data set [11] is PatE′. Description: ITC substrate peptide binding: PatE′. The following applies: 10 μM enzyme, 150 μM peptide, 20° C. How it is done: (§2) ITC experiments were performed using a VP-ITC instrument (MicroCal) in heterocyclization reaction buffer (150 mM NaCl, 10 mM HEPES pH7.4, 1 mM TCEP) supplemented with 5 mM MgCl2. For substrate binding experiments a cell solution of 10 μM LynD (and mutants) and a syringe solution of 150 μM PatE′ (and mutants) was prepared by diluting protein and peptide with the buffer used for dialysis. For nucleotide binding experiments, the cell concentration was increased to 20 μM, and the ATP/AMP concentration in the syringe solution was 300 μM. Substrate, and ATP experiments were performed at 20° C., and AMP experiments at 25° C. Cell and syringe solutions were degassed for 15 min at 18 and 23° C. Titration method was as follows: one injection of 2 μl followed by injections of 5 μl at 0.5 μl/min, with a delay of 4 min between every injection. The stirring speed was 307 rpm throughout. Raw data was processed using MicroCal Origin software, and the baseline was adjusted and the integrations limits were selected manually. Data was non-linearly fitted to the one-site model (Origin) setting the stoichiometry to 1.

The target of data set [12] is T5, PatE' (precursor peptide PatE variant, …). The experiment in a line: ITC, 20 C.
In the next data set the target is PatE′ E31R. Description: ITC substrate peptide binding: PatE′ E31R. The following applies: 10 μM enzyme, 150 μM peptide, 20° C. As for the experimental part: as §2

Where a chain is given by its changes, count along the chain named. In names and notes the source's numbering stands.

Sequence of PatE′ (as listed by the source): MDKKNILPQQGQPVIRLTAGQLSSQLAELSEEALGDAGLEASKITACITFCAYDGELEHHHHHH
Sequence of PatE′ E32R (as listed by the source, stated change not applied): as the sequence (as listed by the source) above, with E32R counted along it
Sequence of PatE′ E31R (as listed by the source, stated change not applied): as the sequence (as listed by the source) above, with E31R counted along it
Sequence of PatE′ L26R (as listed by the source, stated change not applied): as the sequence (as listed by the source) above, with L26R counted along it

B1: MicD-Q21-5G: fused-MicD: leader from Q21, 5 GA repeats linker, KL, MicD (SEQ ID NO: 40) (protein)
chain: MSHHHHHHDYDENLYFQGSQLSSQLAELSEEALGDAGAGAGAGAGAKLMQSTPLLQIQPHFHVEVIEPKQVYLLGEQANYALTGQLYCQILPLLDGQHSREQIVEKLDGEVPSEYIDYVLDRLAEKGYLTEAAPELSSEVAAFWSELGIAPPVAAEALRQSVTLTPVGNISEVTVAALTTALRDIGISVQTPTEAGSPTALNVVLTDDYLQPELAKINKQALESQQTWLLVKPVGSVLWLGPVFVPGKTGCWDCLAHRLRGNREVEASVLQQKQAQQQRNGQSGSVIGCLPTARATLPSTLQTGLQFAATEIAKWIVKHHVKATAPGTVFFPTLDGKIITFNHTVIDLKSHVLVRRSQCPSCGDRQILHRQGFEPVKLVSRRKHFTHDGGHRAFTPEQTVQKYQHLVSPITGVVTELVRLTDPANPLVHTYKAGHAFGSATTLRGLRNTLKYKSSGKGKTDIQSRASGLCEAIERYSGIFQGDEPRKRATLAELGDLALHPESLLYFSNTQYANREELNAQGSAAAYRWIPNRFDVSQAIDWTPVWSLTEQKHKYVPTAFCYYGYPLPEEQRFCKADSNGNAAGNTLEEAILQGFLELVERDSIAMWWYNRIRRPAVDLSTFDEPYFVDLQQFYQQQNRELWVLDVTADLGIPAFAGFSRRTVGTSERISIGFGAHLDPTIAILRALTEVSQVGLELDKIPDDKLDGESKDWMLNVTVENHPWLAPDPSVPMKTASDYPKRWSDDIHTDVMNCVKTAQTAGLEVMVLDQTRPDIGLNVVKVIIPGMRTFWTRFGQGRLYDIPVKLGWLDAPLAEEELNQTNIPF
modifications: Modified heterocyclase MicroD_Q21_5GA
In the case of B1, the “heterocyclization of full-length PatE” value with full-length PatE is “inefficiently and produce a mixture of different heterocyclic species”.

B2: LynD heterocyclase, full-length (Lyngbya sp. PCC 8106) (enzyme)
chain: MQSTPLLQIQPHFHVEVIEPKQVYLLGEQANHALTGQLYCQILPLLNGQYTLEQIVEKLDGEVPPEYIDYVLERLAEKGYLTEAAPELSSEVAAFWSELGIAPPVAAEALRQPVTLTPVGNISEVTVAALTTALRDIGISVQTPTEAGSPTALNVVLTDDYLQPELAKINKQALESQQTWLLVKPVGSVLWLGPVFVPGKTGCWDCLAHRLRGNREVEASVLRQKQAQQQRNGQSGSVIGCLPTARATLPSTLQTGLQFAATEIAKWIVKYHVNATAPGTVFFPTLDGKIITLNHSILDLKSHILIKRSQCPTCGDPKILQHRGFEPLKLESRPKQFTSDGGHRGTTPEQTVQKYQHLISPVTGVVTELVRITDPANPLVHTYRAGHSFGSATSLRGLRNTLKHKSSGKGKTDSQSKASGLCEAVERYSGIFQGDEPRKRATLAELGDLAIHPEQCLCFSDGQYANRETLNEQATVAHDWIPQRFDASQAIEWTPVWSLTEQTHKYLPTALCYYHYPLPPEHRFARGDSNGNAAGNTLEEAILQGFMELVERDGVALWWYNRLRRPAVDLGSFNEPYFVQLQQFYRENDRDLWVLDLTADLGIPAFAGVSNRKTGSSERLILGFGAHLDPTIAILRAVTEVNQIGLELDKVPDENLKSDATDWLITEKLADHPYLLPDTTQPLKTAQDYPKRWSDDIYTDVMTCVNIAQQAGLETLVIDQTRPDIGLNVVKVTVPGMRHFWSRFGEGRLYDVPVKLGWLDEPLTEAQMNPTPMPF
notes: also called native LynD; cyanobactin heterocyclase LynD
In general, Kd refers to the equilibrium constant for the complex coming apart. The low end stands for higher affinity, the high end for lower affinity. In the case of B2, the binding result in [1] is “binds”; with PatE' L29R, “no binding”; with PatE' L26R [2], “no binding”; in the data set with PatE' E31R it was “no binding”; with PatE' C51A, “binds”. Besides, the Kd with PatE' E32R [3] stood at 18.4 µM; in data set [4], 1.49 µM. In addition, the “acceleration of the turnover of the test peptide […] (trans activation, MALDI TOF MS time course)” value in [5] is 6.7- and 5.0-fold, respectively; in data set [6], 6.7- and 5.0-fold, respectively.

B3: LynD Y67D (enzyme)
chain: B2 chain with Y67D
Take B3: the Kd with PatE' L26R [7] is 15.2 µM; in data set [8] it was 12.9 µM. The “No. of heterocycles, peptide PatE′ L26R” value in the data set on PatE′ L26R worked out at 2. For the same molecule, the “No. of heterocycles, peptide PatE′” value in the data set on PatE′ [9] turned out to be 2.

B4: LynD R399E (enzyme)
chain: B2 chain with R399E
notes: Point mutant of LynD
Regarding B4, the Kd amounted to 8.55 µM in the data set with PatE' E32R [10] and 10.7 µM in data set [8]. Also, the “No. of heterocycles, peptide PatE′ E32R” value with PatE′ E32R amounted to 2. For the same molecule, the “No. of heterocycles, peptide PatE′” value in the data set on PatE′ [9] was found to be 2.

B5: LynD R74E (enzyme)
chain: B2 chain with R74E
notes: Point mutant of LynD
Consider B5, for which, at PatE′ [11], the “KD (μM), peptide PatE′” value was “no binding”. Besides, the binding result (in data set [12]; with PatE' E31R) was “no binding” each time. At PatE′ E31R, the “KD (μM), peptide PatE′ E31R” value is “no binding”. Further, in the data set with PatE′ [9], the “No. of heterocycles, peptide PatE′” value is given as 2.
